According to patent publication US6995018B1, “Complex formed by N-linked glycoproteins (SIBLINGS)and Factor H” (The United States of America as represented by the …, priority 1999, dated 2006):
Entries after “also recorded” stand apart in the source; their conditions may differ.

B1: BSP: Bone sialoprotein, phosphorylated and sulfated integrin-binding glycoprotein, SIBLINGS family; recombinant form from adenovirus-infected human marrow stromal fibroblasts (protein)
chain: FSMKNLHRRVKIEDSEENGVFKYRPRYYLYKHAYFYPHLKRFPVQGSSDSSEENGDDSSEEEEEEEETSNEGENNEESNEDEDSEAENTTLSATTLGYGEDATPGTGYTGLAAIQLPKKAGDITNKATKEKESDEEEEEEEEGNENEESEAEVDENEQGINGTSTNSTEAENGNGSSGGDNGEEGEEESVTGANAEGTTETGGQGKGTSKTTTSPNGGFEPTTPPQVYRTTSPPFGKTTTVEYEGEYEYTGVNEYDNGYEIYESENGEPRGDNYRAYEDEYSYFKGQGYDGYDGQNYYHHQ
B2: DMP1: dentin matrix protein, SIBLINGS family member; recombinant from adenoviral construct (protein)
chain: LPVTRYQNNESEDSEEWKGHLAQAPTPPLESSESSEGSKVSSEEQANEDPSDSTQSEEGLGSDDHQYIYRLAGGFSRSTGKGGDDKDDDEDDSGDDTFGDDDSGPGPKDRQEGGNSRLGSDEDSDDTIQASEESAPQGQDSAQDTTSESRELDNEDRVDSKPEGGDSTQESESEEHWVGGGSDGESSHGDGSELDDEGMQSDDPESIRSERGNSRMNSAGMKSKESGENSEQANTQDSGGSQLLEHPSRKIFRKSRISEEDDRSELDDNNTMEEVKSDSTENSNSRDTGLSQPRRDSKGDSQEDSKENLSQEESQNVDGPSSESSQEANLSSQENSSESQEEVVSESRGDNPDPTTSYVEDQEDSDSSEEDSSHTLSHSKSESREEQADSESSESLNFSEESPESPEDENSSSQEGLQSHSSSAESQSEESHSEEDDSDSQDSSRSKEDSNSTESKSSSEEDGQLKNIEIESRKLTVDAYHNKPIGDQDDNDCQDGY

Key:
U-266 myeloma cells = test: Alternate complement pathway cell lysis assay with guinea pig serum, U-266; format: cell-based, human; details: U-266, 10 μg/mL, guinea pig serum 1:5, trypan blue and MTT
Method: (§1) Human cancer cell lines, MCF-7 (A) and U-266 (B) cells were rinsed three time with GVB-MgEGTA buffer and subsequently treated exactly as in the MEL cell complement-mediated cell lysis assay described above except complement active guinea pig serum (GPS) was substituted for human serum. Three different dilutions of GPS were assayed. For cultures pretreated with 10 μg/mL BSP or OPN, the dilution of GPS used was 1:5. Cell viability was determined by both trypan blue exclusion (solid bar) and MTT (open bar) assay. The bars represent the mean values of triplicate samples and the error bars are the standard deviation values.
(§2) Murine erytliroleukemia (MEL) cells (a gift of Dr. Marilyn Farquhar, Univ. CA San Diego.) grown in DMEM containing 10% fetal bovine serum and 4 mM glutamine were rinsed three times with gelatin veronal buffer with Mg2^+ and EGTA (GVB-MgEGTA, Sigma, St. Louis, Mo.). Cells were resuspended in GVB-MgEGTA at a density of 5×10^6 cells/mL and incubated at 37° C. with different concentrations of normal human serum diluted in GVB-MgEGTA. […] Cell viability was determined spectrophotometrically by absorbance at 560 nm. […] Normal human serum collected for good complement activity was then added at a dilution of 1:10 and the cells returned to 37° C. for 2 hours and cell viability was determined by trypan blue-exclusion and MTT assays. […]

[1] = test system: MCF-7 breast cancer cells; test: Alternate complement pathway cell lysis assay with guinea pig serum, MCF-7; format: cell-based, human; details: MCF-7, 10 μg/mL, guinea pig serum 1:5, trypan blue and MTT
Method: as §1, §2

[2] = target: T1, purified human complement Factor H (Homo sapiens, UniProt P08603); test: Steady state fluorescence titration of Factor H with SIBLINGS proteins; format: binding; details: fluorescence quenching at 347 nm, excitation 295 nm
T1 construct: purchased Quidel Corporation (San Diego, Calif.)
T1 sequence (P08603 19-1231): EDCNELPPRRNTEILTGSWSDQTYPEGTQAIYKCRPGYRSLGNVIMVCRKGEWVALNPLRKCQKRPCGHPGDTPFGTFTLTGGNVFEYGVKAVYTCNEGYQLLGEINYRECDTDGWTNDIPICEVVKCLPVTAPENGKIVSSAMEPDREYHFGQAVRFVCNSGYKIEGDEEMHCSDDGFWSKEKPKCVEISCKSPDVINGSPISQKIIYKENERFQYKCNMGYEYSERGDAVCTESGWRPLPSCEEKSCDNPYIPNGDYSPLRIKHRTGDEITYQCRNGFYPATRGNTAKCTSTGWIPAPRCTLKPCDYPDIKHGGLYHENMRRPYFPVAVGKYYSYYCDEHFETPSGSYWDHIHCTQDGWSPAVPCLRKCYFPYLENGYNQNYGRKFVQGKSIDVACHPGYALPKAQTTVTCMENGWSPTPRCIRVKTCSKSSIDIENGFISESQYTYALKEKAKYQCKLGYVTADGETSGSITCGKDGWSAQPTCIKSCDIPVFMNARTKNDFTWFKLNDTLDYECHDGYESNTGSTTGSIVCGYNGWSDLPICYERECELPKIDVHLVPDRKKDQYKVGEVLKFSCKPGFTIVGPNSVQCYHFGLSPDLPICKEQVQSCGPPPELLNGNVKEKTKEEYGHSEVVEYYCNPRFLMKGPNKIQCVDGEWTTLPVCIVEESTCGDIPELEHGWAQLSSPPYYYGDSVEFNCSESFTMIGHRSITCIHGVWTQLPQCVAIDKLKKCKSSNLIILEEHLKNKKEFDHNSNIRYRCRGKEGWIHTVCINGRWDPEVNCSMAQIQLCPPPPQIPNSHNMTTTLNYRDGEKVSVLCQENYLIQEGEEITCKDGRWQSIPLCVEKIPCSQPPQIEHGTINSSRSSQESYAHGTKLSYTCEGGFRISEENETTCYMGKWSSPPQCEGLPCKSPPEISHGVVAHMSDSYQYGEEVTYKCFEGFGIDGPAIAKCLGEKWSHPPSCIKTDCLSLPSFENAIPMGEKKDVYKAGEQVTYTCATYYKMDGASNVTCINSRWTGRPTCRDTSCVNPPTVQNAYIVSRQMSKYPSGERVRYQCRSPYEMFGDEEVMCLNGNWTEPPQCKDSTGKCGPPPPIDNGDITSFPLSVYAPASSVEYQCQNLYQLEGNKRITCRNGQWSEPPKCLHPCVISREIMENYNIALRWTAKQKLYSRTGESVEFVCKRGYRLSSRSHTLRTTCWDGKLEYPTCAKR
Description: FIGS. 3A and 3B are graphs which show the result of a titration of Factor H with BSP.
The salient structural features of Factor H include 20 short consensus repeats (SCRs) that contain four cysteine residues forming two disulfide bonds per repeat. In addition, each SCR contains one conserved tryptophan residue per repeat and Factor H is known to interact with several sialic acid-containing proteins. Therefore, binding interactions between members of the SIBLINGS family of proteins and Factor H can be studied by steady state fluorescence.
Steady state fluorescence studies were accomplished by titrating purified human complement Factor H with rBSP, rOPN, and rDMP1 followed by excitation at 295 nm and monitoring emission between 300 and 450 nm. The emission profile of Factor H alone yields a peak at 347 nm. The addition of rBSP, rOPN, or rDMP1 in nm increments causes a relative fluorescent intensity quenching. Conversion of the fluorescent intensity titration into a binding curve by determining the fraction of binding sites occupied as the fractional change in fluorescence quenching at 347 nm yields a saturable binding curve. […] Given that normal serum concentration of Factor H is ^˜0.5 mg/mL it is probable that virtually all BSP, OPN, and DMP1 in serum will be complexed with Factor H.

[3] = test system: Murine erythroleukemia (MEL) cells; test: Alternate complement mediated cell lysis assay, MEL cells with normal human serum; format: cell-based; details: for protection of MEL cells from complement-mediated lysis (cell viability): 10 μg/mL protein 10 min, normal human serum 1:10, 2 h, trypan blue and MTT
Method: MEL cells were rinsed three times with GVB-MgEGTA buffer, resuspended in GVB-MgEGTA at a density of 5×10^6 cells/mL, and incubated at 37° C. with different concentrations of normal human serum. After 2 hrs, cells were harvested for trypan blue exclusion assay. The thiazolium blue assay was carried out at identical serum dilutions and cell viability was determined by absorbance at 560 nm. Each data point represents the average of three measurements. The error bars represent the standard deviation of the mean (A). MEL cells in GVB-MgEGTA buffer were incubated with 10 μg/mL of either rBSP or rOPN for 10 minutes at 37° C. Normal human serum was then added at a dilution of 1:10 and the cells were returned to 37° C., incubated for 2 hours and cell viability was determined by trypan blue and thiazolyl blue (MTT) reduction assays (B). Data from 3–7 separate experiments, with treatment replicates in triplicate, was combined to yield mean values. Error bars represent the standard error of the mean. N=number of experiments combined.
MEL cells prepared as in FIG. 8 were treated with normal rBSP (10 μg/mL), rBSP whose RGD sequence had been mutated to KAE ([…]), and either GRGDS (SEQ ID NO: 10) peptide (400 μM) followed by rBSP or an αVβ3 antibody (1:4000) followed by rBSP for 10 minutes prior to the addition of normal human serum. The cells were then incubated for […] after which cell viability determined using the MTT assay (A). A cohort of MEL cells were pretreated with rOPN (10 μg/mL) alone, GRGDS (SEQ ID NO: 10) peptide followed by rOPN, the αVβ3 antibody followed by rOPN, or an anti-CD44 antibody (Chemicon, Co.) followed by rOPN, or hyaluronan (HA) followed by rOPN (B). Cells were then treated with normal human serum and viability assayed as in FIG. 8. […] The data represents the mean and standard error of the mean for three separate experiments. Statistical significance was determined by analysis of variance. Percent cell viability was determined using A560 absorbance values of various conditions and a control where no serum had been added (100% viable). The cross-hatched region represents that range of values observed when normal human serum (1:10) alone was added (maximal cell death).
The first model system employed was a murine erythroleukemia (MEL) cell line which when incubated with normal human serum can be readily assayed for alternate complement pathway (ACP)-mediated cell lysis (Varnet et al., Curr. Opin. Cell Biol., 8(5):724–730, 1996). Cell survival was measured by both trypan blue dye exclusion and by thiazolyl blue (MTT) reduction by living mitochondria. Titration with dilutions of normal human serum and time courses were carried out to define optimal incubation conditions. At 1:10 dilution, human serum totally lysed the MEL cells as measured by both assay systems (FIG. 8A).
Murine erytliroleukemia (MEL) cells (a gift of Dr. Marilyn Farquhar, Univ. CA San Diego.) grown in DMEM containing 10% fetal bovine serum and 4 mM glutamine were rinsed three times with gelatin veronal buffer with Mg2^+ and EGTA (GVB-MgEGTA, Sigma, St. Louis, Mo.). Cells were resuspended in GVB-MgEGTA at a density of 5×10^6 cells/mL and incubated at 37° C. with different concentrations of normal human serum diluted in GVB-MgEGTA. […] Cell viability was determined spectrophotometrically by absorbance at 560 nm. […]

| Molecule | survival and protection from complement-mediated cell lysis (U-266 myeloma cells) | survival and protection from complement-mediated cell lysis [1] | binding constant with Factor H [2] | dose relation of protection of MEL cells from alternate complement pathway-mediated lysis [3] | protection of MEL cells from complement-mediated lysis (cell viability) [3] | protection of MEL cells from complement-mediated lysis (cell viability) ([3]; listed as recombinant BSP) |
| --- | --- | --- | --- | --- | --- | --- |
| B1 | enhanced survival and protection | enhanced survival and protection | in the nM range | dose related responses | protect | completely protected |
| B2 | – | – | in the nM range | dose related responses | conferred protection; also recorded: protect the cells | – |
